assay: protease stability score; higher = more stable; yeast display proteolysis, trypsin and chymotrypsin;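 note: log10 excess protease needed over predicted unfolded state with 0 meaning unfolded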

Row | Sequence | protease stability score
1 | DKDDQKRFTDTATKILQHNNPEKMRELADKDARLVVGDRTYTGRRQIVRHMEHLFRRVDHVQIKHVDVRGDHVEIDAVLDYNGRKERMTFVFQAHNGRIKQVEVQTG | 0.603
2 | DKDERHRIAHRLNEAIRTGDPHQMLRLADKNVKVQIGEKDVRGKDAIDKYARDLRKKVDHIQLRSLDVQGEEITMTIVFNVNGRRETVVYHVDYHNGQVKRVMVRSK | 0.043
3 | DKDLIERDKQWWTAVRHNNPDRLSENVDENASVRIGDKEVHGRKDISRLIKHLRDTMHESYKIERVNKEEGRANIQASATRDHNGRPRTARVQVIVEAHNGRIKRIQVQFNS | -0.336
4 | DKDTEQHFADSMNQIIEQGNPKKAMKLADKDVQMQIGDKTYKGREEMMKQIKRFWKHVDEIRVKDVKVNDGQININVILDFNGKKVEVRIVIHVHNGKIHELRVDPKDKEQFEK | 1.09
5 | DKEALDEIEKAARENDWEKLAKMADPNVTATIGNYRVHGRSQFEKWARRVRQEVDHIEVKSIDVHGEKARVNYVIVFNGHNVTAQVQIEAHNGHITYMEVDYTDEDQVRHVKDMLS | 1.6
6 | DKEALRVFEKMLQAQRTGNPQEVRKQVDENARFQVGDKTIQGRERFAEDVDRQRKNMRLDYKHIDNKDHNGQAQADAKVRVNVNGRPIEHSAQFHFSAHNGKLVQLHVQMDEDVRRQIEK | -0.233
7 | DKEASDHATRIAQTNNPQKAVDKADPDVKATYGNKVYNGKNQARDVAKQFDEHFDRVEVKSVDNDGETVRADVRARFNGKTMEFTFVIVMSNGHVKMLFIDVRNPEDQEDLDRLLT | -0.188
8 | DKEAVNIATRYMKAWEQGDSDTLMKLMDEDVRVHYGDKVLEGREDVSRDLKRLLDHAQFEIKHVTNKDNGSVVIVNFHMIVNVNGEPVEVKVVVHFHMHNGRIKQIVIRIDPKQLRQIKG | 1.41
9 | DKEDAEKVMKTMMKVVEKGDPEQLMKVGSEGVEYQAGDLKAHGPEALKQVMDYLQKHGVRLEIKHAEVEGNTVRTYVEYKNGEETDTVEANADVDGGKIDRVEVEVGERAEKWLKHG | -0.57
10 | DKEDVDHLERIMRKGDWDQLKDHADKDVTVVVGDRNIHGREKANNFLKRFKERVDHQEVRRLDVSGNEVVVDMVFNVNGRKIRATVVAVAHNGRLKEVVMRFTSEDDKRRATEAFD | 0.454
11 | DKEDVKKRAEELAEVLQTGDPRKMRDLADKDARLSIGDKEYHGREEISKWVDHMRRDVDHFKLDDVQASGNKMRLTFVLQHNGRRSKFDLDVKYSNGRAKELRFDRK | 0.267
12 | DKEDWTRLTNVLEDNNEHQFQDMLDKDVKIDVGDKRIHGRERAKHFLRKYEREVDEITVYSINVSGDNVKVDRVAKHNGQSVRFVMVFRAHNGKVQEMRIEFRDERQKEIWNQLEQ | 0.231
13 | DKEEAKKILDKAVKAVENGNLEELKQMGKEGVEYELIDKKAHGPEVVHKVMEKLQRHGAELEFKRVQVEGDTVHTVVDYRVGDTEMRATAEATVQGGRIDKVRIEMSEEAQKTIKHG | -0.272
14 | DKEEAQKVAEQMVKAIKNGNLDELADAGDDGVDYQVGDEKKRGREDIKRHVEKLQKAGVEMEVKEVRVEGNEVETKLTYKIGNTEVTVKVTVEVEGGKINRVEVRMSEEVEKTVRHG | -0.193
15 | DKEEARKVLEELIKAVESGNPKDLKKYGKDGVKYRLGDREAHGPEAVYKQFEQIHRQGVELRFEDTKVEGDKVTTRVTYRNGDETYTVQIHAEVRGGKIDRVEADLSDKAKEVVKHG | -0.066
16 | DKEEFEKTAKTFMKVWTNGDPDQWKELMDPNARLQIGDKEWHGREEVREAITQFHDRVDHIEVKDLKVTEDHVRLIAVVRFNGREVKVTVNIHFENGRATHVENHFTDDDQLKRNLS | -0.084
17 | DKEELQHLIRLEEHNDWDKFARQAPPNATLQVGDRVVHGREEAVKFAEKLKKRVDHISIESIDRRGEKLQIVYTMVVDGKRVKAVVVLRASNGRAQSVVFQARDPHDQQVIKENLS | 0.178
18 | DKEELSWAKKVLEKNNWESLAENADENAKVDVGDKRYSGREQVEHLMNQLRRRVDHVEYKHIDSKGDKLVADFQVVVNGREVKVRLQMNVHNGRVRHLTMEARNEDDKRFLKEMLD | 1.3
19 | DKEENHMFQQAFTVEWTGDPEKVNRLMDPNAKIEVGEKRVHGMDKYAREVKREHDDMRVDVRTYSNDVHNGEVDVKVNYVKNNNGRPRHVSQSIRAHASNGKVKSVQVTERG | -0.299
20 | DKEEVEKIAREALEAAVKGDEDKLKTYLGPDVKYVLGDQEYQGQQVAELVMKLIKKDGARLQLETLKVEGNTVQAQYQFHVDGVTRKAHITMKVKGGRVDEWQVHIDDHAKEALKKG | 1.28
21 | DKEEVHKLKHLLRHGDFEKINKKADKDARMQIGDRVYHGREKMKKALEILQREVDDIRVDSIKVSGDRVSAEMHMEVNGRRYVFVVVIRATNGRVVSLKVKARSESQDEHLKNLVE | 0.625
22 | DKEEVQRIVEEMLKFVESGDIKKLVDHGKEGVRYRLGDEEAHGPEAIKKMVVKMKKVGLRIEVKEYQVEGDTATTKLKYQLGDTEDTVEVNAQAQGGRIDQVNADVDKTAVDMIKQG | 0.048
23 | DKEHLKRMVETIIKILETGDPDKMKNLADENVRVEVGDKDVHGKDTLRKHIEEWRRQIDHLEVKSVRVKGNKASIHFVVRVNGTDKTVVVVFDIHNGKIKMVHYTDS | 0.637
24 | DKEIKDLARQVLTAEKTGDPEQFKKLFDPNVHVEVGDKTVTGREEASREFKKSQQELRIDMKSVSVTVEGNSVDIEIHAHLKVNGRPIDMHFRIILTFHNGKVHHVQLQVSEDQLRKMSQ | 0.668
25 | DKEILDLVNEFLKAQRDNDPDRVSELADPNVKVHYGDKQIRGREEVNKQVEKEQKEIQVDFRIKHVTVENGRADLNFRYHANVNGQPISFDARIEMQFHNGRLKRLVLRMPEEAVKTMDS | 0.118

Row | Sequence | protease stability score
26 | DKEKEADQQVRTADEIYQTGNPEEAKKLADPNVDVRIGDKEYHGDRELAQIIVEKRERVDSLVFHVERINVHPGRFQLNVVLTLKHNGKHETKKEEFVMTKRNGQLRVVHMRDQ | 0.056
27 | DKEKEAKKAIDKMITAIQHNDEDRAREMADPNVRIKYGDKQYHGRETMEDWIRTLRNSYDHLDIKLTDMKTDGDKIHIIIQYEADHNGQRTRDRVDLTMRRDNGRVKLVSAKEQ | 0.232
28 | DKELQDTAHKLAKNGDFSRLAELADEDVQIKIGDERVTGREEQKKLVEVQQRRIDHVEVDRVHAQGNKVSVNMTIVVDGESRTVNIDITMHNGRVKEIVYNATSEEARKEMTKWYR | -0.362
29 | DKELRHSWEDQLRAEEEGDENRLRELIDPNASFVVGDKSIHGREQFADDMRRKLTEMRVEIKSYSVHAHNGHLDIKVHRRVNHDGEPKEDTYRADVQADNGRIVRVTIQSDG | -0.652
30 | DKELRKHLTEFVKNYQHGNERELNKYADPNVKFRYGDKTLNGREEWMKHIQRLKKEIRFEIDDFRIRARNGELDMTFDFKQEVNGRPKSDRAQMNVVMHNGKIVEIDFRVDPTFEKEVKG | 0.376
31 | DKELWEWFRRWLENYRTGNHNNIREMADPNVRMVVGDKHISGREHYAEEVSRQVHKLRVSLDFKDYDLRPNRVNVDAVIRMTSDGEPDQSKWSQTLQFSNGRLHQANVTMNQ | 0.192
32 | DKEMASVVERWLDALQRNDPDQANNNADKDATFDVGDKKVKGRDTLKKLVEDLRREMRFNITSMSITVHGDKVVVTYRVSMQHDGQPMQHRYFLHAQDKNGHIHNLHVQKSD | 0.44
33 | DKENLETLHELMTALERGDEQKVADEIDPNAKLQYGDKEIHGRKQAHRFIKTVKDQQRFHIQVKDLKVKGDTMDLRAEVEFQHNGHPDSDVIVVNARAHNGHISTLTVTKDD | -0.223
34 | DKEVEEVWKKMLTAQKYGDEKRYKDLADPNVKYNIGDKKIDGRDTYAEEMKKRRDEIRLRMQITDVKQQGDKLHVRFKIEAEINGKPISEDVTAVLVNHNGKVKHYSMHVPHEFFKKQQK | 0.213
35 | DKEVIKQLKHFMKALEKGDPDKLVELADPEAKYEYGDRTYKGMSNVAEELVNTRREIRFQLTLQSYEVQGEKARVKAVYVKDRNGKPDNQVVVIEMEAHNGKIKSMQERSDQ | 0.501
36 | DKEVNNMAEKFLDAFRTNDPDQVRRLADENASFRVGDKVLTGMTEAVRELHRQVKQMEVRITDVKNSVQGDQANLDIHFDVHDNGKPDTRRMVLVVNVENGRIREVEVNQDD | 0.4
37 | DKHAAQVVLEIMHAVDTGNENEVMKLIDPNARVEYGDKSITGREDIARHLIHDAKHINRRWSLKDIDVQGEKVFIKFEYKTNKNGRPDKADVNLEAKAHNGTVTTMRLQETR | 0.368
38 | DKHLEDLARTLVHALRTGDPQMINHLFDENARVEVGNRRVHGREDANQRMKEINSQARMHVRLTSLRVDENRADLTVDASARVNGQPNTLRYQFWFHQHNGRITSMSARMSEHDVKQFES | -0.278
39 | DKHQMHILKSIVENEQKGDEKSVSKMVDPNARFHVGDKRISGREQKDEDVQRKKDEIRVQIDKVEFNHSNGRVVVNMDMTIDRNGKPKTFKAQAHATFHNGTATSQTQTNDG | -0.614
40 | DKHRVEHAKRILEIWTNGDEKSVKDLFDPNVRVDVGDKRITGREQLAREWKRRRDEMEWSLTVHEYKDDPNRVDINVHFNRNKNGRPRTQQQHLRIDMDNGSVRQLRIEDSK | 0.216
41 | DKKANSMAHDLIRNRNSNNPERLKEMMDPNVEIVIGDKTVNGTHEYERQQRQRDRQIQIDVKSVTFKDRPNHAQVRFDAVFHHNGQPDRRVQEVIIRQRNGKVKHIHVQDTE | -0.365
42 | DKKDVDRVIKLLEQGDWESLVEMMDENARLQVGNKNYHGRTQVRHAATRLQDRIDHVKIDQVDVHNGRVDARFKANINGKTMDVQVRINVDNGHIKYVRVTVRSEELRHELDRLLS | 0.961
43 | DKKEHQEAAETFDRALKRGDPDTAMSLFDKDARANVGDKTYQGSEKLSEAMHRLSEEADRFHVRDVHFTNGEVSVNMYLNVNGKRVQVDVHIELSNGRAKEVTFNPDQLNEMQN | -0.119
44 | DKKLNKQMEEWVQAVNTGDSEQLEDLVDPNVRLEVGDKQFHGREEVRRQQTKKIEEIRLHLDLKDVKAENGHAQLDVNVEFEHNGQPNSNRRTLNAVVHNGKIKHLSDKTDP | -0.347
45 | DKKLSRQFREFWRAMEDGDPDKLRENADPNVKYVVGDKTIHGRETYVKEAQDRRREMRVELDTMSINDKGERITVEYVQVNEHNGRPKQAVYRQVILFKNGRIKEVRQTKTD | -0.073
46 | DKKQVHDVARTLVQYYVSGNSERVKQLGKEDVELHAGDRTYHGVDQMAKVVEQFKKYGVELEVKDVKVDGNRVTARVQFHKAGTTWEFKVDVQADGGKVDQVRVNVTEEAIKHIQHG | 0.797
47 | DKNNLKRYDKLLKILQTGDEHKAKKLADPNVKVKVGDKEIKGWDRFVHESAKRWREARIELKIKHVDVSGDKVTIDYEAEVEVNGKPIRYTATFRFVVHNGRIKTINFSMDENQRETVKR | 0.007
48 | DKQDLDKLRELWEDELNGDHRSLREQVDPNAKVEIGDKEIHGRDDFAKDAKRRKEEIRVEMRVKSLSASGDTIDAKVHLDFKVNGKPIRLTVHMHVKVENGKFVDLNVRIDERQVRKIRK | 0.089
49 | DKREQSEIAKEVLRMLLTGDPDQNHKLADKDVQFSVGDRTITGREDLDRWLREMHHHIDTQEVKSLDVNGEDVVIDVVATFNGVHMRFVIRVEVHNGRIVNMRMEVTSEETLKRVDG | -0.092
50 | DKSANHQIEQLMRNINEGDKDKVREQMDPNVEVHVGDKEVHGREQYAREVRKEQEEMRVQFKVEHVKDRNGQAELRIQVQLDHNGKPETRVQHFVAVLDNGRVKSATAKIDK | -0.084

— the NTF2 design screens of Basanta et al. (2020)
